The text below walks through data of the supplement of paper PMC10567573.

± gives the standard deviation.

A short description of the data set: protein stability index of a GFP-peptide fusion (GPS, HEK-293T) (PSI 1-6); higher = more stable.
Where [1] appears, read: treatment: DMSO, c terminus: a fixed tail appended.
Setting [2] is: treatment: MLN4924 1 uM, 8 h, c terminus: a fixed tail appended.
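Note: 24-mer peptide tiles fused after GFP, lentivirally expressed, FACS-sorted into six equal bins by GFP/DsRed ratio, decoded by Illumina sequencing, PSI is the read-weighted mean bin number.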

MDGATLCNCALEELRLVFGPLGDQ [ELF3]: the protein stability index turned out to be 2.33 ± 0.27 under setting [1] and 2.4 ± 0.68 under setting [2]. The corresponding values for MEGLAGYVYKAASEGKVLTLAALL [FEM1B] are 2.22 ± 0.31 and 2.09 ± 0.44. Regarding MEKSSFTEYIESPDVENEVKRLLR [TAF7L], the protein stability index stood at 3.79 ± 0.28 under setting [1] and 3.83 ± 0.23 under setting [2].

For MENKSLESSQTDLKLVAHPRAKSK [ZBED1], the protein stability index turned out to be 5.26 ± 0.29 under setting [1] and 5.27 ± 0.25 under setting [2]. On the same counts, the results for MEQPTSSTNGEKTKSPCESNNKKN [SPANXN3] are 5.32 ± 0.33 and 4.92 ± 0.85. On the same counts, the results for MGGTQQQFVEGVRMEEIVEGCTGA [CTNNB1] are 5.09 ± 0.15 and 5.1 ± 0.072. On the same counts, the results for MGNLVMFRKDSVLNILIQSLDWET [INTS3] are 2.68 ± 0.64 and 2.82 ± 0.45. With MIIVAISPKYKQDVEGAESQLDED [TRAF3IP2], the protein stability index is 2.52 ± 0.14 under setting [1] and 2.26 ± 0.25 under setting [2]. On the same counts, the results for MIRESETKKGFYSLSVRHRQVKHY [SLA] are 2.59 ± 0.44 and 2.94 ± 0.13. Turning to MLENYSNLVSVGYQAGKPDALTKL [ZNF649], the protein stability index by setting is: under setting [1], 2.72 ± 0.2; under setting [2], 2.83 ± 0.18. On the same counts, the results for MLPGVGVFGTSLTARVIIPLLKDE [GFOD1] are 2.17 ± 0.19 and 2.02 ± 0.16. On the same counts, the results for MLTVMTKYQANITETQRLGLAMAL [FANCE] are 2.52 ± 0.43 and 2.48 ± 0.25. Take MNGDSRAAVVTSPPPTTAPHKERY [ADD1]: the protein stability index amounted to 4.89 ± 0.26 under setting [1] and 5.07 ± 0.22 under setting [2].

As to MNYMPGTASLIEDIDKKHLVLLRD [LSM1], the protein stability index by setting is: under setting [1], 3.15 ± 0.16; under setting [2], 3.27 ± 0.32. The corresponding values for MQAAEVFSQKHFPEVVQHEEFILL [KLHL12] are 2.17 ± 0.48 and 2.44 ± 0.73. On the same counts, the results for MRAAALCDKHSKLFEEPEDPSNRS [PPP2R2C] are 5.14 ± 0.12 and 5.17 ± 0.12. As for MRGPEPGPQPTMEGDVLDTLEALG [FAM98B], the protein stability index turned out to be 5.19 ± 0.34 under setting [1] and 5.087 ± 0.039 under setting [2]. Regarding MSPYLVPDTQALCHHLPVIRQLAT [SMG5], the protein stability index under setting [1] was found to be 2.3 ± 0.28 and the protein stability index under setting [2] is 2.52 ± 0.22. On the same counts, the results for MSQTVQRMLVAASWACAFTNALTH [OR3A1] are 3.3 ± 0.22 and 3.31 ± 0.23. As to MTSMSAELKMRAIQAEERLDMEKR [LRRC45], the protein stability index is, setting by setting: under setting [1], 4.65 ± 0.19; under setting [2], 4.9 ± 0.16.

MVHINRALKLIIRLFLVEDLVDSL [RTN3] gave a protein stability index under setting [1] of 2.88 ± 0.31 and a protein stability index under setting [2] of 2.92 ± 0.53. Regarding MVPISKQPKEKIQAIIESCSRQFP [NOL4L], the protein stability index runs as follows: under setting [1], 3.34 ± 0.11; under setting [2], 3.38 ± 0.47. The corresponding values for MVSALRGAPLIRVHSSPVSSPSVS [SPACA3] are 2.85 ± 0.39 and 3.08 ± 0.3. The corresponding values for MVVIHKEIPTGKKDHECSECGKTF [ZNF232] are 3.07 ± 0.4 and 3.28 ± 0.2.

As to MWAHSMTVQDYQDLIDRGWRRSGK [ATE1], the protein stability index was 3.11 ± 0.14 under setting [1] and 3.27 ± 0.24 under setting [2]. The corresponding values for NCSIGPNVSLGPGVVVEDGVCIRR [GMPPB] are 4.29 ± 0.3 and 4.393 ± 0.043. The corresponding values for NDFGVFLCKLFPFLQKSSVGITVL [EDNRA] are 2.88 ± 0.52 and 3.26 ± 0.73.

For NEIFTQLYRTLFSVINNGHNQKVH [PDS5B], the protein stability index reads like this: under setting [1], 2.24 ± 0.47; under setting [2], 2.47 ± 0.56. Consider NELDSGFRLLNLKNDSLRKRYDGL [TSN], for which the protein stability index was determined as 3.21 ± 0.28 under setting [1] and 3.43 ± 0.36 under setting [2]. NGADVNIQSKDGKSPLHMTAVHGR [ANKRD44] gave a protein stability index under setting [1] of 4.44 ± 0.22 and a protein stability index under setting [2] of 4.46 ± 0.11. The corresponding values for NIKANDYANAVLQALSNVPPLRNY [USP39] are 2.18 ± 0.21 and 2.03 ± 0.32. Consider NIPQMADTLFERATNSSWVVVFKA [SNAP91], for which the protein stability index by setting is: under setting [1], 2.27 ± 0.65; under setting [2], 2.3 ± 0.82. The corresponding values for NIQETHRLYRLKLEELTKLQNNCT [TMEM120A] are 2.92 ± 0.19 and 3.08 ± 0.29.

With NITVQKKVSQWWERLTKQEKRPLF [HACD3], the protein stability index is, setting by setting: under setting [1], 2.65 ± 0.18; under setting [2], 2.91 ± 0.13. On the same counts, the results for NKGTETDNDPSCVHPIIKRRQCRP [PHTF1] are 4.88 ± 0.085 and 4.81 ± 0.21.

In turn, NLKWLDLKDNPLDPVLAKVAGDCL [LRRC59] registered a protein stability index under setting [1] of 3.21 ± 0.26 and a protein stability index under setting [2] of 3.08 ± 0.19.

In the case of NLQSLKTPTLKVFMHENLYFTNRK [DCAF4], the protein stability index came to 2.73 ± 0.26 under setting [1] and 2.65 ± 0.2 under setting [2].

Take NLRRHVPDLESGSESGADTISVNQ [DLC1]: the protein stability index runs as follows: under setting [1], 5.29 ± 0.27; under setting [2], 5.25 ± 0.28. NMAGVTFRKFIPKCSKIVIDFDSI [DCTD] yielded a protein stability index under setting [1] of 2.5 ± 0.39 and a protein stability index under setting [2] of 1.95 ± 0.32.

NNILISAVLPTAFRVAKKRAPKVL [GDAP1] returned a protein stability index under setting [1] of 2.34 ± 0.24 and a protein stability index under setting [2] of 2.48 ± 0.34. On the same counts, the results for NNMNAVNLFFAWIKIFKYISFNKT [PKD2L1] are 2.81 ± 0.46 and 2.58 ± 0.54. The corresponding values for NNTGKNLELKFVSSLRRQFEFSVD [TENT5D] are 2.75 ± 0.42 and 2.75 ± 0.4.

Regarding NPEVGIFVSIAQSEQESLLQQAQA [SMG5], the protein stability index was 4.09 ± 0.3 under setting [1] and 4.23 ± 0.24 under setting [2]. As to NPIIYSFRNPDVQSAIWRMLTGRR [OR3A1], the protein stability index worked out at 2.51 ± 0.41 under setting [1] and 2.58 ± 0.36 under setting [2]. Turning to NPLIASSFSLVKLVLRRQLKNKCC [C22orf31], the protein stability index runs as follows: under setting [1], 2.25 ± 0.35; under setting [2], 2.18 ± 0.32.

As for NQRIIHRDMKPDNILLDEHDTWLS [STK32A], the protein stability index runs as follows: under setting [1], 3.71 ± 0.33; under setting [2], 3.63 ± 0.27.

Regarding NRVSAIIFSLATEWVISTGHDKCV [WDFY1], the protein stability index was found to be 2.96 ± 0.23 under setting [1] and 2.89 ± 0.4 under setting [2]. The corresponding values for NSQESRSDLEDMEEEEGTRSPTLE [SMG5] are 5.56 ± 0.16 and 5.44 ± 0.23. On the same counts, the results for NSRVDDTFWASWRAFAQIGPARSG [MIR22HG] are 2.6 ± 0.32 and 2.79 ± 0.35. NVEDASHEEVVEKVKKSGSRVMFL [PDZK1] had a protein stability index under setting [1] of 4.45 ± 0.2.

Turning to NVNRLNESFRDLQLRLLQAPLQAD [SCARA5], the protein stability index came to 3.3 ± 0.38 under setting [1] and 3.33 ± 0.34 under setting [2]. The corresponding values for PALEEAPDSHQKRPQHSHSNKKRP [ELOA2] are 5.52 ± 0.25 and 5.33 ± 0.46. Consider PAMAASKALGSDLDSSLASLVGNL [SNAP91], for which the protein stability index runs as follows: under setting [1], 4.06 ± 0.34; under setting [2], 3.95 ± 0.34.

For the sequence PANSETSDLTLYLVVAVAAVSCVF [PCDHGA10], the protein stability index worked out at 2.69 ± 0.61 under setting [1] and 2.59 ± 0.54 under setting [2]. On the same counts, the results for PARLLLQALQAGPEGARRGLGVLR [FANCE] are 2.67 ± 0.16 and 2.82 ± 0.34. As for PATALGTASYPSDGCGADGLRSRV [NOL4L], the protein stability index reads like this: under setting [1], 4.39 ± 0.27; under setting [2], 4.55 ± 0.26. For the sequence PDITSSRYRGLPAPGPSPADKKRS [WAS], the protein stability index is 5.22 ± 0.097 under setting [1] and 5.271 ± 0.036 under setting [2]. Turning to PDRGSPEYRQRRERNNIAVRKSRD [CEBPD], the protein stability index is 5.03 ± 0.37 under setting [1] and 5.35 ± 0.12 under setting [2].

For PEAEENKQIIRKHAQTFVALCATD [CCND1], the protein stability index reads like this: under setting [1], 3.4 ± 0.73; under setting [2], 3.81 ± 0.71.

With PEFIKVRENLRRIATLTSEEREL [FAM107A], the protein stability index runs as follows: (treatment: DMSO, c terminus: native) 2.66 ± 0.5; (treatment: MLN4924 1 uM, 8 h, c terminus: native) 3.35 ± 0.55. In the case of PEIQKVRAQEREQIKALNNKFASF [KRT71], the protein stability index was determined as 3.78 ± 0.32 under setting [1] and 3.86 ± 0.44 under setting [2]. For PEKASELSQVELQAAPGALPVSSP [TRIM55], the protein stability index under setting [1] amounted to 5.21 ± 0.38 and the protein stability index under setting [2] came out at 5.49 ± 0.24. For the sequence PFNKVQSARFWIPGEPNNAGNNEH [CD207], the protein stability index reads like this: under setting [1], 3.92 ± 0.35; under setting [2], 3.93 ± 0.17. The corresponding values for PFSFGTLSSWELEAWYEDLQEVLS [DDIT3] are 2.37 ± 0.54 and 2.78 ± 0.21.

As to PGAPRGNPPKASAAPDCTPSLEAG [MYCL], the protein stability index stood at 5.28 ± 0.34 under setting [1] and 5.36 ± 0.17 under setting [2].

PGGETEALTRLERHLERKAWVANF [CRY1] had a protein stability index under setting [1] of 3.04 ± 0.36 and a protein stability index under setting [2] of 3.07 ± 0.39. On to PGGGRGALLDQIRQGIQLNKTPGA [WAS], for which the protein stability index reads like this: under setting [1], 5.3 ± 0.1; under setting [2], 4.99 ± 0.47. The corresponding values for PGPSPDVQLATLAQRVKEVLPHVP [AUP1] are 4.14 ± 0.32 and 4.14 ± 0.13. The corresponding values for PGSFWGLCQVAQEALASAGASCCG [VENTX] are 2.41 ± 0.4 and 2.54 ± 0.22. The corresponding values for PGTSFKDSTKTAFHRSQTLSYRNG [EFHC1] are 3.68 ± 0.1 and 3.89 ± 0.11. With PHFLRVPCWKITLFVIVPVLGPLV [MOG], the protein stability index by setting is: under setting [1], 2.9 ± 0.65; under setting [2], 2.85 ± 0.3. Consider PHQCSECGRAFSRKSLLVVHQRTH [ZNF649], for which the protein stability index under setting [1] came to 4.93 ± 0.2 and the protein stability index under setting [2] came to 5.12 ± 0.16.
